Assay results from patent US20250043302A1, “MUTATED HYDROXYPHENYLPYRUVATE DIOXYGENASE POLYPEPTIDE, AND CODING GENE AND USE THEREOF” (BEIJING DABEINONG BIOTECHNOLOGY CO., LTD., priority 2021, published 2025).

How the values were obtained:
Format in all cases: in vivo
soybean T1 plants [1] = experiment: Topramezone tolerance of transgenic soybean T1 plants; conditions: different concentrations
Experimental: T1 transformants were initially selected from the untransformed seeds using a glufosinate selection scheme. […] The degree of damage caused by the herbicide was measured for each plant according to the proportion of bleached leaf area (the proportion of bleached leaf area=bleached leaf area/total leaf area×100%) 7 days after spraying (7 DAT): the case where there is basically no bleached phenotype is defined as grade 0, the case where the proportion of bleached leaf area is less than 50% is defined as grade 1, the case where the proportion of bleached leaf area is more than 50% is defined as grade 2, and the case where the proportion of bleached leaf area is 100% grade is defined as grade 3.
The soybean T1 plants into which the SbHPPD-02 nucleotide sequence was introduced, soybean T1 plants into which the SbHPPDm-F372A-02 nucleotide sequence was introduced, soybean T1 plants into which the SbHPPDm-F383W-02 nucleotide sequence was introduced, soybean T1 plants into which the SbHPPDm-F372A-F383W-02 nucleotide sequence was introduced, soybean T1 plants into which the control vector DBN11726N nucleotide sequence was introduced, and wild-type soybean plants (V3-V4 at seedling stage) were sprayed with topramezone at three different concentrations (i.e., 25 g ai/ha (one-fold field concentration, 1×). […] According to the method in point 6 of Example 1, after 7 days of spraying (7 DAT), the damage degree of each plant by the herbicide was statistically analyzed, and the scoring and resistance evaluation were carried out accordingly. […]

[2] = test system: Arabidopsis thaliana T1 plants; experiment: Isoxaflutole tolerance of transgenic Arabidopsis thaliana T1 plants (spray, bleached leaf area grade, damage score); set-up: Scores (pesticide damage): scale not given here; conditions: spray, Arabidopsis thaliana T1 plants; for Classification and statistics of the grade of pesticide damage: Grade 0 (number of plants) / Classification and statistics of the grade of pesticide damage: Grade 1 (number of plants) / Classification and statistics of the grade of pesticide damage: Grade 2 (number of plants) / Classification and statistics of the grade of pesticide damage: Grade 3 (number of plants): 16 plants
How it was run: (§1)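 Damage was assessed by bleaching grade (0 none; 1 <50%; 2 >50%; 3 100% of leaf area) one week after spraying. Sprays on 18-day-old T1 and wild-type plants used field-rate multiples: topramezone 25–200, isoxaflutole 35–280, mesotrione 52.5–420 g ai/ha.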

[3] = test system: Arabidopsis thaliana T1 plants; experiment: Topramezone tolerance of transgenic Arabidopsis thaliana T1 plants (spray, bleached leaf area grade, damage score); conditions: 7 DAT, Table 4; for Classification and statistics of the grade of pesticide damage: Grade 0 / Classification and statistics of the grade of pesticide damage: Grade 1 / Classification and statistics of the grade of pesticide damage: Grade 2 / Classification and statistics of the grade of pesticide damage: Grade 3: number of plants; for Scores: pesticide damage score 0-100
How it was run: as §1

soybean T1 plants [4] = experiment: Mesotrione tolerance of transgenic soybean T1 plants; conditions: different concentrations
soybean T1 plants [5] = experiment: Isoxaflutole tolerance of transgenic soybean T1 plants; conditions: different concentrations
[6] = test system: Arabidopsis thaliana T1 plants; experiment: Mesotrione tolerance of transgenic Arabidopsis thaliana T1 plants (spray, bleached leaf area grade, damage score); set-up: Scores: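 damage score 0-100 computed as Σ(N×S)/(T×M)×100 over grades 0-3 with higher meaning more damage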; conditions: Arabidopsis thaliana T1 plants; for Grade 0 (classification and statistics of the grade of pesticide damage; number of plants) / Grade 1 (classification and statistics of the grade of pesticide damage; number of plants) / Grade 2 (classification and statistics of the grade of pesticide damage; number of plants) / Grade 3 (classification and statistics of the grade of pesticide damage; number of plants): 16 plants
How it was run: as §1

[7] = isoxaflutole 35 g ai/ha (0.5x field concentration)
[8] = isoxaflutole 70 g ai/ha (1x field concentration)

B1: SbHPPDm-F372A-02: nucleotide sequence encoding Sorghum bicolor HPPD with F372A; vector DBN11759 (nucleic acid)
DNA: ATGCCGCCCACTCCAACAACTGCTGCTGCGACGGGAGCAGCTGTCGCCGCTGCTTCTGCTGAGCAGGCTGCCTTCAGGCTCGTCGGGCACAGAAATTTTGTTCGTGTAAATCCAAGGAGTGATAGGTTCCACACCTTGGCTTTTCACCACGTGGAGTTGTGGTGTGCTGATGCAGCCTCGGCAGCGGGGCGCTTCTCGTTTGGTCTCGGTGCTCCGCTCGCCGCAAGATCTGATCTTAGCACTGGAAACACAGCGCATGCCTCCCTGCTCCTGCGCTCTGGCGCGCTGGCGTTCCTCTTCACGGCGCCATATGCTCACGGCGCCGACGCCGCCACCGCGTCATTGCCGTCTTTTAGTGCAGCCGAAGCAAGAAGATTTGCAGCAGACCACGGCCTCGCCGTAAGGGCCGTGGCCTTACGTGTCGCCGATGCCGAAGATGCTTTCCGCGCCTCTGTAGCAGCTGGAGCAAGGCCAGCATTTGAACCTGTTGAATTGGGGTTAGGATTCCGTCTTGCAGAAGTTGAGCTTTATGGCGACGTTGTTTTGAGATACGTTTCATATCCTGATGACGCTGACGCTAGCTTCTTGCCTGGTTTTGTGGGGGTGACATCACCTGGGGCAGCAGATTATGGTCTCAGGCGGTTTGATCATATTGTTGGAAACGTTCCTGAACTCGCGCCGGCGGCAGCCTACTTCGCCGGTTTCACTGGGTTTCATGAATTTGCTGAATTCACAGCCGAGGATGTCGGCACCACCGAGAGTGGACTGAACTCCATGGTGCTGGCCAACAATGCAGAGAATGTCCTTCTTCCCTTGAATGAACCAGTTCATGGAACAAAAAGGCGTTCCCAAATACAAACATACCTCGACCATCATGGTGGACCAGGCGTTCAGCATATGGCTCTCGCTAGTGACGATGTTCTACGAACCCTGCGAGAGATGCAGGCGCGGTCTGCAATGGGAGGATTTGAGTTCATGGCACCTCCTGCCCCTGAATATTATGATGGTGTTCGGAGAAGGGCAGGTGATGTGCTAACTGAAGCTCAAATCAAGGAGTGCCAGGAGCTTGGCGTGCTGGTCGATCGGGATGATCAAGGTGTGCTTCTGCAGATTGCCACTAAACCAGTGGGTGACCGCCCCACGCTGTTCCTAGAGATCATCCAGAGAATAGGGTGCATGGAGAAGGACGAAAAAGGACAAGAGTACCAGAAGGGAGGTTGTGGCGGCTTTGGAAAAGGGAACTTCTCCCAATTATTCAAGTCAATTGAAGACTATGAAAAGAGTTTGGAGGCTAAGCAAGCTGCAGCCGCCCAGGGCAGCTGA
modifications: SbHPPDm-F372A-02 Nucleotide Sequence
notes: vector DBN11759
tolerance to HPPD-inhibitor herbicides (in words): topramezone (soybean T1 plants [1]): different degrees of tolerance | Resistance evaluation [2, 7]: Poorly | Scores (pesticide damage) [2, 7]: 67 | Classification and statistics of the grade of pesticide damage: Grade 0 (number of plants) [2, 7]: 0 | Classification and statistics of the grade of pesticide damage: Grade 1 (number of plants) [2, 7]: 2 | Classification and statistics of the grade of pesticide damage: Grade 2 (number of plants) [2, 7]: 12 | Classification and statistics of the grade of pesticide damage: Grade 3 (number of plants) [2, 7]: 2 | Resistance evaluation [2, 8]: Non-resistant | Scores (pesticide damage) [2, 8]: 100 | Classification and statistics of the grade of pesticide damage: Grade 0 (number of plants) [2, 8]: 0 | Classification and statistics of the grade of pesticide damage: Grade 1 (number of plants) [2, 8]: 0 | Classification and statistics of the grade of pesticide damage: Grade 2 (number of plants) [2, 8]: 0 | Classification and statistics of the grade of pesticide damage: Grade 3 (number of plants) [2, 8]: 16 | Classification and statistics of the grade of pesticide damage: Grade 0 ([3]; topramezone 25 g ai/ha (1×)): 16 | Classification and statistics of the grade of pesticide damage: Grade 1 ([3]; topramezone 25 g ai/ha (1×)): 0 | Classification and statistics of the grade of pesticide damage: Grade 2 ([3]; topramezone 25 g ai/ha (1×)): 0 | Classification and statistics of the grade of pesticide damage: Grade 3 ([3]; topramezone 25 g ai/ha (1×)): 0 | Classification and statistics of the grade of pesticide damage: Grade 0 ([3]; topramezone 100 g ai/ha (4×)): 4 | Classification and statistics of the grade of pesticide damage: Grade 1 ([3]; topramezone 100 g ai/ha (4×)): 4 | Classification and statistics of the grade of pesticide damage: Grade 2 ([3]; topramezone 100 g ai/ha (4×)): 8 | Classification and statistics of the grade of pesticide damage: Grade 3 ([3]; topramezone 100 g ai/ha (4×)): 0 | Scores ([3]; topramezone 25 g ai/ha (1×)): 0 | Scores ([3]; topramezone 100 g ai/ha (4×)): 42 | Resistance evaluation ([3]; topramezone 25 g ai/ha (1×)): highly | Resistance evaluation ([3]; topramezone 100 g ai/ha (4×)): poorly | tolerance to HPPD-inhibitor herbicides (in words): mesotrione (soybean T1 plants [4]): different degrees of tolerance | tolerance to HPPD-inhibitor herbicides (in words): isoxaflutole (soybean T1 plants [5]): different degrees of tolerance | Resistance evaluation ([6]; mesotrione 52.5 g ai/ha): Poorly resistant | Scores ([6]; mesotrione 52.5 g ai/ha): 60 | Grade 0 (classification and statistics of the grade of pesticide damage; number of plants) ([6]; mesotrione 52.5 g ai/ha): 0 | Grade 1 (classification and statistics of the grade of pesticide damage; number of plants) ([6]; mesotrione 52.5 g ai/ha): 6 | Grade 2 (classification and statistics of the grade of pesticide damage; number of plants) ([6]; mesotrione 52.5 g ai/ha): 7 | Grade 3 (classification and statistics of the grade of pesticide damage; number of plants) ([6]; mesotrione 52.5 g ai/ha): 3 | Resistance evaluation ([6]; mesotrione 105 g ai/ha): Non-resistant | Scores ([6]; mesotrione 105 g ai/ha): 100 | Grade 0 (classification and statistics of the grade of pesticide damage; number of plants) ([6]; mesotrione 105 g ai/ha): 0 | Grade 1 (classification and statistics of the grade of pesticide damage; number of plants) ([6]; mesotrione 105 g ai/ha): 0 | Grade 2 (classification and statistics of the grade of pesticide damage; number of plants) ([6]; mesotrione 105 g ai/ha): 0 | Grade 3 (classification and statistics of the grade of pesticide damage; number of plants) ([6]; mesotrione 105 g ai/ha): 16
